Results: patent US20020127657A1

Target: GST-fusion of the truncated CD2 tail (CD2221-282) (human) (UniProt P06729)
Assay: NMR titration, estimate from line broadening in fast exchange

Sequence of GST-fusion of the truncated CD2 tail (CD2221-282) (human) (P06729 245-306): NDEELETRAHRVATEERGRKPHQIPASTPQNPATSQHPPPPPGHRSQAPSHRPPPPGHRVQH

koff: > 1000 s⁻¹
Substance: purified binding domain of CD2BP2 comprising amino acids 256-341 (His-tagged, NMR sample)
